From patent US9522945B2 (OPKO Biologics Ltd., priority 2012, dated 2016)
Like-named read-outs stand apart in the source and are kept apart here.

Tests used:
[1] = set-up: species or system rats; details: rat, in vivo
Source text: Cohorts of 3 animals per group were bled at alternating time points. […] The study was divided into 3 sequential experiments, Experiment #1 (Groups 1-4), Experiment #2 (Groups 5-9) and Experiment #3 (Groups 10-13).

[2] = system: C57BL/6 mice; test: IP glucose tolerance test (IPGTT); format: in vivo; details: for effect on glucose levels / glucose tolerance, in words: Experiment 1, 100 nmol/kg IP 15 min prior to glucose IP (1.5 g/kg)
Procedure: Overnight-fasted mice were measured for glucose (pre-dose glucose). Immediately after, they were IP injected with one of the test articles. […] Blood glucose level were measured by tail vein sampling using a handheld glucometer.

[3] = system: C57BL/6 mice; test: Acute food intake study; format: in vivo
Procedure: At least one week before injection, mice were weighed and were transferred to a mini cage for acclimatization, (one mouse per cage). During the acclimatization period, they were handled daily and received two injections of vehicle to minimize stress during the study period. The day before the experiment, the mice were fasted. […] After injection, the mice were returned to their home cages (1 mouse per cage), and provided with a pre-weighed amount of chow. Food intake were measured 0, 1, 2, 4, 6, 8, 21, 32 and 44, 55, 68, 80, 93 and 141 h post injection by weighing the chow.
In this study, the acute effect on food intake was measured.
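Throughout, for CL: blood drawn at alternating time points, with three animals in each cohort.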
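Throughout, for Tmax: blood drawn at alternating time points, with three animals in each cohort.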
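Throughout, for Vd: blood drawn at alternating time points, with three animals in each cohort.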
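Throughout, for pharmacokinetic profile / PK parameters, comparison in words: blood drawn at alternating time points, with three animals in each cohort.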

B1: OXM-CTP-CTP-CTP-CTP: oxyntomodulin with four CTPs on the carboxy terminus, SEQ ID NO: 27 (protein)
chain: MATGSRTSLLLAFGLLCLPWLQEGSAHSQGTFTSDYSKYLDSRRAQDFVQWLMNTKRNRNNIASSSSKAPPPSLPSPSRLPGPSDTPILPQSSSSKAPPPSLPSPSRLPGPSDTPILPQSSSSKAPPPSLPSPSRLPGPSDTPILPQSSSSKAPPPSLPSPSRLPGPSDTPILPQ
modifications: OXM-CTPx4
- pharmacokinetic profile / PK parameters, comparison in words [1]: superior in these parameters compared to other variants
- CL ([1]; sc): 5.923 mL/min/kg
- Tmax ([1]; sc): 2.0 h
- Vd ([1]; sc): 5.3796 L/kg
- glucose tolerance activity when administered 120 min prior to glucose ([2]; Experiment 2, 100 nmol/kg IP 120 min prior to glucose): induced glucose tolerance activity
- inhibition of food intake, comparison in words ([3]; single administration, mice): did not last as long as OXM-CTPx5 or OXM-CTPx3

B2: OXM-CTP-CTP-CTP: oxyntomodulin with three CTPs on the carboxy terminus, SEQ ID NO: 25 (protein)
chain: MATGSRTSLLLAFGLLCLPWLQEGSAHSQGTFTSDYSKYLDSRRAQDFVQWLMNTKRNRNNIASSSSKAPPPSLPSPSRLPGPSDTPILPQSSSSKAPPPSLPSPSRLPGPSDTPILPQSSSSKAPPPSLPSPSRLPGPSDTPILPQ
modifications: OXM-CTPx3
- CL ([1]; sc): 8.547 mL/min/kg
- Tmax ([1]; sc): 2.0 h
- T½ ([1]; sc): 3.78 h
- Vd ([1]; sc): 2.797 L/kg

B3: CTP-OXM-CTP: oxyntomodulin with one CTP on the amino terminus and one on the carboxy terminus, SEQ ID NO: 9 (protein)
chain: MATGSRTSLLLAFGLLCLPWLQEGSASSSSKAPPPSLPSPSRLPGPSDTPILPQHSQGTFTSDYSKYLDSRRAQDFVQWLMNTKRNRNNIASSSSKAPPPSLPSPSRLPGPSDTPILPQ
modifications: CTP-OXM-CTP
- Bioavailability [1]: 24.44%
- bioavailability as calculated from Experiments 1 & 2, change in words [1]: no significant improvement
- AUC(0-t) ([1]; iv, 230 ug/kg): 592.7 ng·h/mL
- AUC∞ ([1]; iv, 230 ug/kg): 598.0 ng·h/mL
- CL ([1]; iv, 230 ug/kg): 5.922 mL/min/kg
- MRT ([1]; iv, 230 ug/kg): 0.81 h
- T½ ([1]; iv, 230 ug/kg): 0.25 h
- T½β ([1]; iv, 230 ug/kg): 1.57 h
- Vd ([1]; iv, 230 ug/kg): 0.8069 L/kg
- AUC(0-t) ([1]; sc, 230 ug/kg): 144.87 ng·h/mL
- AUC∞ ([1]; sc, 230 ug/kg): 170.82 ng·h/mL
- CL ([1]; sc, 230 ug/kg): 20.7328 mL/min/kg
- Cmax ([1]; sc, 230 ug/kg): 31.11 ng/mL
- MRT ([1]; sc, 230 ug/kg): 4.73 h
- Tmax ([1]; sc, 230 ug/kg): 1.00 h
- T½ ([1]; sc, 230 ug/kg): 3.28 h
- Vd ([1]; sc, 230 ug/kg): 5.88775 L/kg
- effect on glucose levels / glucose tolerance, in words [2]: increased glucose levels

B4: CTP-OXM-CTP-CTP: oxyntomodulin with one CTP on the amino terminus and two on the carboxy terminus, SEQ ID NO: 15 (protein)
chain: MATGSRTSLLLAFGLLCLPWLQEGSASSSSKAPPPSLPSPSRLPGPSDTPILPQHSQGTFTSDYSKYLDSRRAQDFVQWLMNTKRNRNNIASSSSKAPPPSLPSPSRLPGPSDTPILPQSSSSKAPPPSLPSPSRLPGPSDTPILPQ
modifications: CTP-OXM-CTP-CTP
- Bioavailability [1]: 32.43%
- bioavailability as calculated from Experiments 1 & 2, change in words [1]: increased
- AUC(0-t) ([1]; iv, 230 ug/kg): 968.2 ng·h/mL
- AUC∞ ([1]; iv, 230 ug/kg): 977.4 ng·h/mL
- CL ([1]; iv, 230 ug/kg): 3.623 mL/min/kg
- MRT ([1]; iv, 230 ug/kg): 0.80 h
- T½ ([1]; iv, 230 ug/kg): 0.28 h
- T½β ([1]; iv, 230 ug/kg): 1.61 h
- Vd ([1]; iv, 230 ug/kg): 0.5064 L/kg
- AUC(0-t) ([1]; sc, 230 ug/kg): 313.98 ng·h/mL
- AUC∞ ([1]; sc, 230 ug/kg): 320.86 ng·h/mL
- CL ([1]; sc, 230 ug/kg): 11.038 mL/min/kg
- Cmax ([1]; sc, 230 ug/kg): 30.18 ng/mL
- MRT ([1]; sc, 230 ug/kg): 6.62 h
- Tmax ([1]; sc, 230 ug/kg): 6.00 h
- T½ ([1]; sc, 230 ug/kg): 4.39 h
- Vd ([1]; sc, 230 ug/kg): 4.13925 L/kg

B5: OXM-CTP-CTP-CTP-CTP-CTP: oxyntomodulin with five CTPs on the carboxy terminus, SEQ ID NO: 29 (protein)
chain: MATGSRTSLLLAFGLLCLPWLQEGSAHSQGTFTSDYSKYLDSRRAQDFVQWLMNTKRNRNNIASSSSKAPPPSLPSPSRLPGPSDTPILPQSSSSKAPPPSLPSPSRLPGPSDTPILPQSSSSKAPPPSLPSPSRLPGPSDTPILPQSSSSKAPPPSLPSPSRLPGPSDTPILPQSSSSKAPPPSLPSPSRLPGPSDTPILPQ
modifications: OXM-CTPx5
- pharmacokinetic profile / PK parameters, comparison in words [1]: superior in these parameters compared to other variants
- CL ([1]; sc): 5.77 mL/min/kg
- Tmax ([1]; sc): 8 h
- T½ ([1]; sc): 9.63 h
- Vd ([1]; sc): 4.812 L/kg
- cumulative food inhibition sustained for ([3]; cumulative food intake, mice): at least 141 hrs
- time for which food intake was reduced compared to vehicle ([3]; single SC 1700 nmol/kg, male C57BL/6 mice): 5 days
- duration of food intake inhibition, percentage of food intake per time interval ([3]; time intervals over the experiment (FIG. 6B), single SC, male C57BL/6 mice): about 80 hours

B6: OXM-CTP-CTP: oxyntomodulin with two CTPs in tandem on the carboxy terminus, SEQ ID NO: 21, expressed in CHO cells (protein)
chain: LEDMATGSRTSLLLAFGLLCLPWLQEGSAHSQGTFTSDYSKYLDSRRAQDFVQWLMNTKRNRNNIASSSSKAPPPSLPSPSRLPGPSDTPILPQSSSSKAPPPSLPSPSRLPGPSDTPILPQ
modifications: OXM-CTP-CTP
- pharmacokinetic profile / PK parameters, comparison in words [1]: superior PK parameters as compared to the CTP-OXM-CTP-CTP variant
- AUC(0-t) ([1]; sc, 230 ug/kg): 697.00 ng·h/mL
- AUC∞ ([1]; sc, 230 ug/kg): 702.10 ng·h/mL
- CL ([1]; sc, 230 ug/kg): 5.045 mL/min/kg
- Cmax ([1]; sc, 230 ug/kg): 50.90 ng/mL
- MRT ([1]; sc, 230 ug/kg): 8.20 h
- Tmax ([1]; sc, 230 ug/kg): 6.00 h
- T½ ([1]; sc, 230 ug/kg): 4.76 h
- Vd ([1]; sc, 230 ug/kg): 2.0789 L/kg

B7: CTP-CTP-OXM: oxyntomodulin with two CTPs on the amino terminus, SEQ ID NO: 23 (protein)
chain: MATGSRTSLLLAFGLLCLPWLQEGSASSSSKAPPPSLPSPSRLPGPSDTPILPQSSSSKAPPPSLPSPSRLPGPSDTPILPQHSQGTFTSDYSKYLDSRRAQDFVQWLMNTKRNRNNIARSGCGRGTLGLMGLPFTARFP
modifications: CTPx2-OXM
- Bioavailability [1]: 23.36%
- bioavailability as calculated from Experiments 1 & 2, change in words [1]: no significant improvement
- AUC(0-t) ([1]; iv, 230 ug/kg): 488.6 ng·h/mL
- AUC∞ ([1]; iv, 230 ug/kg): 490.4 ng·h/mL
- CL ([1]; iv, 230 ug/kg): 7.222 mL/min/kg
- MRT ([1]; iv, 230 ug/kg): 0.86 h
- T½ ([1]; iv, 230 ug/kg): 0.27 h
- T½β ([1]; iv, 230 ug/kg): 1.20 h
- Vd ([1]; iv, 230 ug/kg): 0.7481 L/kg
- AUC(0-t) ([1]; sc, 230 ug/kg): 114.15 ng·h/mL
- AUC∞ ([1]; sc, 230 ug/kg): 129.85 ng·h/mL
- CL ([1]; sc, 230 ug/kg): 27.2758 mL/min/kg
- Cmax ([1]; sc, 230 ug/kg): 27.77 ng/mL
- MRT ([1]; sc, 230 ug/kg): 4.10 h
- Tmax ([1]; sc, 230 ug/kg): 1.00 h
- T½ ([1]; sc, 230 ug/kg): 2.74 h
- Vd ([1]; sc, 230 ug/kg): 6.45976 L/kg
- effect on glucose levels / glucose tolerance, in words [2]: minor impact on glucose tolerance
